From the DeepSol protein solubility set

Test: soluble on expression in E. coli; label from the status in PepcDB or PDB records

Sequence	soluble on expression in E. coli
MGSDKIHHHHHHMIYMRLKLSFIYDGDKFQPNKHAVQGFIYNMLRGTEYEDRHNRRGFKFFTFSDVFRDSKGYYSLLIASPDSGFINALYLSLKDRDHVYIGKDEIKLVEVKKFKLKLKRAFQTGSPVVIYKDSRKNEYFKLHEHRDLLFFLQRLKENAEKKFNSFYGDEFHLEGLIFDRVIPKVRKNGKVDVYVKVVKNGVPFPVIGTNWELLEKERIKPEERRFYRFIMDCGLGEKNSLGFGFLNPIKGVKN	not soluble
MALDITDESEIYNLDSLVSYSQGGCKAEHDWRIGTEHEKFPFYRGDFRPVPYEGSRGIRALLEGMQKALGWEPILDEGNIIGLVGSVGQGAISLEPGGQFELSGALLKTIGDTYCEVIEHLALLKKISEPLGIGFLGIGASPKWTLTETPRMPKSRYRIMANYMPKVGHSGLDMMYRTSTVQVNLDFSSETDMRRKMQVSMKLQSIATALFASSPFTEGRPNGFLSWRSEIWCDTDNQRTGVLPFIFSERFGFADYVEWALDVPMYFVVRDGRYYDCTHITFRQFMNGALRGQVANATPNMGDWINHLSTLFPEVRLKRFLEMRGADCGSLKRICALSAFWVGILYDSEALNEAEALTKDWCFEEVLDMRKRVPKEGLKTPFRQTIILEIARQAVAISHKGLKNRRQYASNGLDETSFLAPLEEVIAMGQTDADKFLSLYHSIWDKSVEPVFLECVY	not soluble
MHHHHHHSSGVDLGTENLYFQSMQGTNPYLTFHCVNQGTILLDLAPEDKEYQSVEEEMQSTIREHRDGGNAGGIFNRYNVIRIQKVVNKKLRERFCHRQKEVSEENHNHHNERMLFHGSPFINAIIHKGFDERHAYIGGMFGAGIYFAENSSKSNQYVYGIGGGTGCPTHKDRSCYICHRQMLFCRVTLGKSFLQFSTIKMAHAPPGHHSVIGRPSVNGLAYAEYVIYRGEQAYPEYLITYQIMKPEAPSQTATAAEQ	soluble
MSLINKHVISEKIKKAIVEANIKINPEVEEIIERYEGPFSDIIKENYRVSKEEKLPLCQDTGIVEFFVFIGHEVKLEEPIEETLNRAVGEVYSEYPFRYSVVSDPLFERINTGTNTPAIVHIFQVKGKSLEIRFLVRGGGSENLTVLRMMTPTSDVEKVKEFVIEHIKEHGAKACPPLHVGIGIGGTADKALLLSKLALTKSFKERNKDPKYAGLEKELEKELNFLGIGFQGLGKGITVYSVHIEHFPTHIATLPVAVSVDCYLCRRGKVTFEDEGGSHHHHHH	soluble
MTLDEEYLDITFLTENGFVRKRCPKCGKHFWTADPEREICGDPPCESYSFIGNPVFKKPFELDEMREYYLNFFERRGHGRIERYPVVARWRTDIYLTIASIADFQPFVTSGVAPPPANPLTISQPCIRLDDLDSVGRTGRHLTLFEMMAHHAFNYPGKEIYWKNETVAYCTELLNELGVKKEDIVYKEEPWAGGGNAGPCLEAIVGGLEVATLVFMNLEEHPEGDIEIKGARYRKMDNYIVDTGYGLERFVWASKGTPTVYDAIFPEVVDTIIDNSNVSFNREDERVRRIVAESSKLAGIMGELRGERLNQLRKSVADTVGVSVEELEGIVVPLEKVYSLADHTRCILFMLGDGLVPSNAGAGYLARLMIRRSLRLAEELELGLDLYDLVEMHKKILGFEFDVPLSTVQEILELEKERYRTTVSKGTRLVERLVERKKKLEKDDLIELYDSHGIPVELAVGIAAEKGAEVEMPKDIYAELAKRHSKAEKVQEKKITLQNEYPATEKLYYDDPTLLEFEAEVIGVEGDFVILNRSAFYPESGGQDNDVGYLIANGGKFEVVDVLEADGVVLHVVKGAKPEVGTKVKGVIDSDVRWRHMRHHSATHVLLYSLQKVLGNHVWQAGARKEFSKARLDVTHFRRPSEEEIKEIEMLANREILANKPIKWEWMDRIEAERKFGFRLYQGGVPPGRKIRVVQVGDDVQACGGTHCRSTGEIGMLKILKVESIQDGVIRFEFAAGEA	soluble
MATEPPKIVWNEGKRRFETEDHEAFIEYKMRNNGKVMDLVHTYVPSFKRGLGLASHLCVAAFEHASSHSISIIPSCSYVSDTFLPRNPSWKPLIHSEVFKSSI	soluble
CGPQYRFVWKGGEGGIGDAANALDSGKIIAIKGIGGYHIACLTEDDVVLRLRKLLNRPQQPFAVMVRDLSSAERVAELSNEERAELLSPARPIVVVRKKLPFEAVAPELDTIGIMLPYTPLHHLLFQELKADYLVMTSANLPGEPMYIDESIMEKMELDGFLVHNLEIANRVDDSVVKYVGGRRLLIRRSRGFVPQPIKIDIGFN	not soluble
MSLLKMYADKRGLKDIKSNMVMREFEEVFEKFKDWTEKIKQKYPNPDEILNLEKEEKWDFSDLFGEFLGDYRTVKSYHEFDKDNPYLPSDEFNKYFAAFSQIQEEIRKEKAEKKALEVQEEDLSNEVRKEPQIFSWEYGEGIQANLDYIFHLIKDLYNCDNEQDRQKVLDKIKTAIRTNPEIQVNEDILNEFIEDLGKSFEKEKLEEVWKTEGKLRECLKDFCKKKEESNKKKIINDFLVKGVFLVEWVADKQLNTAKKKGEYSPSWSDTEKLIWKEKSTNLPTMTEKDEDGNFKWRKLITDISEAFKNEGHHHHHH	soluble
MQDTLPIHFAPLQGYTEAIYRNAHDAFFGGVDTYYTPFVRLEKGNFRRRDVRGIEPENNGVPHLIPQLIASSAEKAEVILSLFIEKGYQEVDINLGCPFPLLAKRHNGSGILPYPEEVKALLSIVTRYPQISFSVKMRLGWEQPDECLALAPILNDLPLRQITMHPRLGKQGYKGEVDLQGFSAFREVCQLPLVYNGDIHNLEDIQRISTQFPSLAGIMIGRGLLANPALALEYKENRTLAPDEMRDRLKSMHKSVYNNYDVLLEGGEGQLLTKMKTFWEYLAPQTDRKVLKAIHKSTNISKYYQAVSAFFNQR	not soluble
MIRGNAGIMTNYRLSNLFSLQAELNFTTHGKNYCIDGLPHRNRYGYEVTDQTLINIRLHYLELPLLAKFTLFSSQKVTFDMAAGPFIGYKLAARQKTEGGDYQNTTSDYTRLNAGYQISFGFSVMKKRLFFEMRGSRGFVPINTADATKITTMQGGVAIGYYFFSGKKK	not soluble
MASSINGRKPSEIFKAQALLYKHIYAFIDSMSLKWAVEMNIPNIIQNHGKPISLSNLVSILQVPSSKIGNVRRLMRYLAHNGFFEIITKEEESYALTVASELLVRGSDLCLAPMVECVLDPTLSGSYHELKKWIYEEDLTLFGVTLGSGFWDFLDKNPEYNTSFNDAMASDSKLINLALRDCDFVFDGLESIVDVGGGTGTTAKIICETFPKLKCIVFDRPQVVENLSGSNNLTYVGGDMFTSIPNADAVLLKYILHNWTDKDCLRILKKCKEAVTNDGKRGKVTIIDMVIDKKKDENQVTQIKLLMDVNMACLNGKERNEEEWKKLFIEAGFQHYKISPLTGFLSLIEIYP	soluble
MPNMGIEKLYVSQQLTDSAAGMTFTKPQYYKYVQELSLKPKVNSASAYAENRKVDQDTQFDSCDVSINLFQMTSSQRAFMLGQSLAGGGGAIGALNDKAPWITLLYKAPIKVDDTIYYRYGVIYKTQFQPPDDDYKTTEGKPDFSQVPKISGSAQPTEWSFKDGKLEKHPWEWHVDTCDPNCPENIDDTWFNSVSIPSLVTYGSLSLSASSPKDGATGISLDTKPSLTFNNPIMNATSILLYNVSDGATVNTTTSSDSSGKIITITPSTNLVANKNYVLVVQDVTDLYGQTLDTQLIRFTTATAASLEHHHHHH	soluble
MQFLHILLLSILSLIFISSVQAVPSDQDIEALMGLQDQVNAFLGESNMSPEAKKKIEDMMAKKQAAIENSLGRK	soluble
MGSDKIHHHHHHMAKLKISKKISTALINSLGAGVVPRVGVEYIAVGREKELKSLLQNLDDIAEGVAAFRFIIGNYGSGKSFLLQLIRNRAMEQGFVVADADLSSERRLAGSNNEGVATYRELMSHLATKTRPDGGALVSILEGWINKIQQEVVKETEMRPNDDGFDDQVESKIREVVQYIEGLVHGFDFGSVIIAYWRGYRMDDDNLKNAAMRWLRGEFTTKVEAKAALGVRVIIDDDSWYDYIKLFAKFVAEIGYKGLLILVDEAVHLYQISTTVTREKNYNRLLAMFNDTMQCKAEHLGIVVGGTTKFLEDPKRGLFADQAWQRRTKESRFVAQANVQENSGPVIRLNPLSEAEILTLLQRLAEIHALNFGYEQTLTNRELKEFVQEIINRLGAEALLTPGEIVRDFMSVLNILHQNPGIVFAELIHGSKFKPTAMGKNPNVDENGAAEFSL	not soluble
MPSAMNERTVAELEKLLRYIAANLKQRGREILTNYPITPPQFVALQWLLEEGDLTVGELSNKMYLACSTTTDLVDRMERNGLVARVRDEHDRRVVRIRLLEKGERIIEEVIEKRQRDLANVLESFSDEEIVVFERCLRKLHQEMTKE	soluble
MSLHGVPFGTVPPMGTIGLIAAMPDEIRPFLRLASPAARLHGGRFPIWRLRVGNDDIVLVESGMGIDRATAATDALVAAASPVAILSFGFGGAALPGLKVGDLAVGMTSWFAGTEGIVLRRGIDRNLAEKLAEELNRICNGVTRGEIITSARILKKGDLAHSLPNGISSPILDMETAAVAEAAHRRGIPIVALRAISDDAEEELSFSLDEFTDDDMAIRPRKVLATIARKEGHHHHHH	soluble
MPSFREDALSRIRHDGDFDAVVIGGGINGIAAYRDLALQGLRVLLVERNDFSSGCSAAPSRMIHGGLRYLENGEFGLVAESLRERDALLTLAPHMVQPLPTTIPIFSMFSGLFNAAATFFGSGGKPASRGALAIKAGLTLYDFVTRKNRLLPRHEFRGAGKTLKRWPGLTPDIRYSATYYDAWISQPERLALELLIDTSADAPQSIALNYAELVRNGDEYHIRAEETDETLPIRPRIIVNATGAWIDETIGTLSAGPAAEKQKPTVSGTKGSHLIIANDGLLKALNGHMIFFENADNRVCILFPYLGRVLAGSTDIKVDRPERVRCEPDERDYILDAIRQVFPDITVDHSDIVFSFSGIRPLPRSDAAFTGRISRSHFIHRVAGDPPQLCMIGGKWTTFRAFGEQVSDEVLAFLGRKRLTGTMNRPIGGGRNFPTGAGRLPALLSEQFSIDRRRAQHLALAYGSRAFELMGFCRGRPDDAPLSQKSPITAAEILWLIRCEHVRHLTDLILRRTTLAIAGLIDADLIDAILGVAARELGWTPTRAAVERQQLTQELETFYGVTPAMLQNRCKENALEHHHHHH	soluble
MSLSKREEWAQGFILNLQSGYTQGTVGFGLDAMGMLGVKLDSGRGRSGTGLLPKDSDGRAPDTYSKLGLTAKVKVSQSELKVGTLIPKLPSVQPNNGRIFPQIFEGALLTSKEIKDLGFTAGRLEKTKIRDSSDSEDLALNDKNGRFAGVSADHFDLGGLDYKLTDQLTASYHYSNLQDVYRQHFVGLLHSWPIGPGELTSDLRFARSTDSGSAKAGGIDNKSLNGMFTYSLGNHAFGAAWQRMNGDDAFPYLEGSNPYLVNFVQVNDFAGPKERSWQLRYDYDFVGLGIPGLTFMTRYVKGDNVELAGQSGEGREWERNTELQYVFQSGALKNLGIRWRNATFRSNFTRDIDENRLIVSYTLPIWEGHHHHHH	not soluble
MKRQLILEDGTVLIGTGFGGEIEKSGEVVFTTGMTGYQETLSDPSYCGQIVTFTYPLIGNYGINRDDFESIHPSVNGLIVNEICDHPSNFRNEISLNDYLKERNIPGLAGIDTRKLTRKIRQYGTLRGRLCNMDADVEYIVSQLKATVFTDHVKRVSTKDPYPSPGRGHRVVLVDFGMKHGILRELNKRDCDVIVVPYNTTAEEILRLSPDGIMLSNGPGDPKDVPEAIEMLKDIIGKVPLFGICLGHQLFALASGANTSKLKFGHRGLNHPVKNIATGKVAITSQNHGYAVEEESVENTELEITHVALNDGTVEGLRHKKFPAFTVQYHPEASAGPEDANDLFEDFLTMIENFKKEGEELCQNA	not soluble
